Key:
[1] = target: GST-fused human V158 FcγRIIIa (extracellular region) (human) (UniProt P08637); test: AlphaScreen competition with biotinylated WT AC10
[2] = target: GST-fused human V158 FcγRIIIa (extracellular region) (human) (UniProt P08637); test: SPR, GST-FcγRIIIa V158 on chip

Sequence of GST-fused human V158 FcγRIIIa (extracellular region) (human) (P08637 17-208 F176V): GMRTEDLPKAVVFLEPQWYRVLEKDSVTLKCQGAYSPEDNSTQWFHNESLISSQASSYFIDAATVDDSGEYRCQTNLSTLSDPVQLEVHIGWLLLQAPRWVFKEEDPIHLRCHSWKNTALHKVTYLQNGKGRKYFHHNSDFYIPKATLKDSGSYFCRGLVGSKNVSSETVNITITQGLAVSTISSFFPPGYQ

IC50 [1]: 87.2 nM
Kd [2]: 18.6 nM
Substance: WT AC10 antibody (L0/H0)

Reference: US7930107
